Measured values from patent publication US20240247072A1 (KEYMED BIOSCIENCES, published 2024).

T1: human CD70, full length, on CHO cells (CHO-human CD70-B07) (human, UniProt P32970 1-193)
T1 construct: whole, on cells; Stably transfected CHO cells; also called CHO-CD70
T1 sequence (looked up): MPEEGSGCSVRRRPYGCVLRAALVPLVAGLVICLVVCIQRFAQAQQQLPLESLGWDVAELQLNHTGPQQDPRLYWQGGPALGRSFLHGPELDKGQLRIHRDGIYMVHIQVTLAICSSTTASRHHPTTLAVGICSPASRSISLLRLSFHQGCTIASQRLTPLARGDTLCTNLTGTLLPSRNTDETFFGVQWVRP

T2: cynomolgus monkey CD70, full length, on CHO cells (CHO-monkey CD70-D01) (cynomolgus monkey, UniProt A0A2K5WTU9 1-190)
T2 construct: whole, on cells; Stably transfected CHO cells; also called CHO-cynomolgus monkey CD70
T2 sequence: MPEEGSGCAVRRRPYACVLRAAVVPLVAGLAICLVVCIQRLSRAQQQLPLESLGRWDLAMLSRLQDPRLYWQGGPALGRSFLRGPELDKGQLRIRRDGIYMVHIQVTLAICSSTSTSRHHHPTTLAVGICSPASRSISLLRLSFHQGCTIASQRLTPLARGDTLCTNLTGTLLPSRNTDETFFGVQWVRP

T3: recombinant trimeric protein of human CD70 extracellular region (human CD70 mIgG Fc (knob) / mouse IgG Fc … (human, UniProt P01863 98-330 = IgG part))
T3 construct: The ELISA and Octet texts say only 'recombinant CD70 protein' / 'CM352 antigen'; also called recombinant human CD70 protein; recombinant CD70 protein
T3 chain 1: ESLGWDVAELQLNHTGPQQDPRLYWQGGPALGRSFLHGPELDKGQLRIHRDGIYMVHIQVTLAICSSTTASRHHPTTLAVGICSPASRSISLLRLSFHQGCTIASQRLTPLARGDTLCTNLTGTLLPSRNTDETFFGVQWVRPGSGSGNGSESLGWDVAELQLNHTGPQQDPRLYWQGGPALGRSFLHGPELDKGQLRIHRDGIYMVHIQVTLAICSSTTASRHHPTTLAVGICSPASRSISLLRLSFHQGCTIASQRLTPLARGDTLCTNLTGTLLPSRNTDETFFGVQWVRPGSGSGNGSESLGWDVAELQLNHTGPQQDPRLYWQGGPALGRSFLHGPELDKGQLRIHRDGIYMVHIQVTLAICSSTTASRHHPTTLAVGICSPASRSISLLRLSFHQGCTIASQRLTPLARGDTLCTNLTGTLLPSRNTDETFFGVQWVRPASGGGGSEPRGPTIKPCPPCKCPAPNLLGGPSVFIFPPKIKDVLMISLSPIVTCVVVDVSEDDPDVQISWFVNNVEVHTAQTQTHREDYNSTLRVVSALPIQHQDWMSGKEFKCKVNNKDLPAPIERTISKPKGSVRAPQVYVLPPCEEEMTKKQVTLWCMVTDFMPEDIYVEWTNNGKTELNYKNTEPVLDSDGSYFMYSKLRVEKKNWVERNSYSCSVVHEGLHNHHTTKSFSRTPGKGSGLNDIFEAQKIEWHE
T3 chain 2: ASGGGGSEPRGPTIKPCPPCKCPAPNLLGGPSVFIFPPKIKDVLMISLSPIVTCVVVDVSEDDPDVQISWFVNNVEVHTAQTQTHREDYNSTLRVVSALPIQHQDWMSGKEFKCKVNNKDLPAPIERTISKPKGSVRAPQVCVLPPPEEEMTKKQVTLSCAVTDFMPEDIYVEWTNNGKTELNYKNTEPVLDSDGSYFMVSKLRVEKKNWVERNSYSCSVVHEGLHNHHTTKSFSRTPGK

T4: recombinant cynomolgus monkey CD70 protein (cynomolgus monkey, UniProt A0A2K5WTU9 39-190)
T4 construct: it stands only in column heads ('Monkey', 'Cynomolgus Monkey CD70/CD27') and in result sentences; also called Monkey (ELISA)
T4 sequence: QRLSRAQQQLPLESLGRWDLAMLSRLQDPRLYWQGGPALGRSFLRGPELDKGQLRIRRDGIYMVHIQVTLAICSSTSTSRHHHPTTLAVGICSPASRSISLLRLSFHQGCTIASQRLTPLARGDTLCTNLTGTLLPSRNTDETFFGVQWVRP


How the values were obtained:
[1] = target: T1, human CD70, full length, on CHO cells …; experiment: flow cytometry, Fab on CHO-human CD70 cells
Procedure: (§1) The blank control cell CHO and stably-transfected cell line CHO-CD70 were prepared and added at 5×10⁴ cells/well into a 96-well plate respectively. 50 μL of Fab antibodies with different dilution gradients were added into each well and incubated at 4° C. for 60 minutes. The centrifuge was performed to discard the supernatant. The plate was washed with 0.5% BSA/PBS and added with 50 μL of a secondary antibody solution (Anti-human IgG F (ab′) 2-AF647, Jackson Immuno Research) and incubated at 4° C. for 45 minutes. The excess secondary antibody was washed off with 0.5% BSA. The PBS solution was added to resuspend cells for flow cytometry. The data was collected.

[2] = target: T2, cynomolgus monkey CD70, full length, on …; experiment: flow cytometry, Fab on CHO-cynomolgus CD70 cells
Procedure: as §1

[3] = target: T3, recombinant trimeric protein of human …; experiment: BLI (Octet), biotin antigen on SA probe, Fab in solution
[4] = target: T4, recombinant cynomolgus monkey CD70 …; experiment: competition ELISA, Fab titrated, cynomolgus CD27 coated, biotin-CD70
Procedure: (§2) The next day, the plate was washed 3 times with PBS, added with 200 μL of 2% defatted dry milk/PBS, blocked at room temperature for 2 hours, and washed once with PBS, 50 μL of different dilution gradients of Fab antibodies were added and incubated at room temperature for 30 minutes. […] The plate was washed 3 times with PBST and PBS and dried by spinning. A secondary antibody solution Streptavidin-coupled horseradish peroxidase SA-HRP (BD bioscience, Cat. No: 6222697) was diluted with 0.5% BSA in a ratio of 1:8000. 100 μl of the diluent was added into each well and incubate at room temperature for 30 minutes. The plate was washed 3 times with PBST and PBS and dried by spinning. 100 μl of the color development solution (TMB solution, Sigma, Cat. No: T2885) was added into each well and protected from light at 37° C. for reaction. After the substrate developed moderately, 50 μl of 2M concentrated sulfuric acid solution was added into each well to terminate the reaction. The OD450 nm was determined by using an enzyme-linked detector within 30 minutes, and the data was collected.

[5] = target: T3, recombinant trimeric protein of human …; experiment: competition ELISA, Fab titrated, human CD27 coated, biotin-CD70
Procedure: as §2

[6] = target: T3, recombinant trimeric protein of human …; experiment: cell-based or functional assay
[7] = target: T4, recombinant cynomolgus monkey CD70 …; experiment: competition ELISA, humanized IgG1 titrated, CD27 coated, biotin-CD70, cynomolgus pair
[8] = target: T1, human CD70, full length, on CHO cells …; experiment: flow cytometry, humanized IgG1 on CHO-human CD70 cells
Procedure: (§3) The supernatant was discarded and the cells were gently tapped to be loosening. 50 μL of gradient diluted antibodies were added (antibody concentration: from 30 μg/mL, 3-fold dilution for 8 gradients) per well, and incubated at 4° C. for 1 hour. After incubation, 200 μL of 0.5% BSA was added to each well for washing 3 times. 50 μL/well of secondary antibody Alexa Fluro647 anti-human IgG (Jackson ImmunoResearch, Cat. No: 109-606-170) was added and incubated at 4° C. for 45 minutes. At the end of the incubation, each well was washed 3 times with 180 μL of 0.5% BSA and finally resuspended in 50 μL of PBS for iQue (Intellicyt) assay.

[9] = target: T3, recombinant trimeric protein of human …; experiment: competition ELISA, humanized IgG1 titrated, CD27 coated, biotin-CD70, human pair
Procedure: The recombinant human CD27 protein was coated at 1 μg/mL in a 96-well microtiter plate and incubated overnight at 4° C. The next day, the plate was washed 3 times with PBS, added with 200 μL of 2% defatted dry milk/PBS, blocked at room temperature for 2 hours, and washed once with PBS. […] 30 μl of the antibody was added per well and incubated at room temperature for 30 minutes. […] The plate was washed 3 times with PBST and PBS and dried by spinning. A secondary antibody solution Streptavidin-coupled horseradish peroxidase SA-HRP (BD bioscience, Cat. No: 6222697) was diluted with 0.5% BSA in a ratio of 1:8000. 100 μL of the diluent was added into each well and incubated at room temperature for 30 minutes. The plate was washed 3 times with PBST and PBS and dried by spinning. […] of color development solution (TMB solution, Sigma, Cat. No: T2885) was added into each well and protected from light at 37° C. for reaction. After the substrate developed moderately, […] of H₂SO₄ was added into each well to terminate the reaction. The OD450 nm was determined using an enzyme-linked detector within 30 minutes, and the data was collected. The results were calculated by using Graph Pad Prism 5 software. See FIG. 10-1, 10-2, and Table 12 for the results.

[10] = target: T2, cynomolgus monkey CD70, full length, on …; experiment: flow cytometry, humanized IgG1 on CHO-cynomolgus monkey CD70 cells
Procedure: as §3

| Binder | EC50 [1] [nM] | EC50 [2] [nM] | koff [3] [s⁻¹] | IC50 [4] [nM] | IC50 [5] [nM] | Inhibition of IL-8 secretion IC50(nM), HT1080-human CD27 cells stimulated with recombinant human CD70 [6] [nM] | IC50 [7] [nM] | EC50 [8] [nM] | IC50 [9] [nM] | EC50 [10] [nM] |
| --- | --- | --- | --- | --- | --- | --- | --- | --- | --- | --- |
| 25H7 Fab antibody (Fab, V domains shown, Purified Fab from the mouse Fab phage display library) VH: EIQLVQSGPELKKPGETVKISCKASGYTFTNYGMNWVKQTPGKGLKWMGWINTDTGEPTYADDFKGRFAFSLETSASTAYLQINNLKNEDMATYFCAREEDYRYVFNYWGQGTTLTVSS VL: DIQMTQTTSSLSASLGDRVTISCRASQDISNYLNWYQQKPDGTVKLLIYYTSRLHSGVPSRFSGSGSGTDYSLTISNLEQEDIATYFCQQGVTLPLTFGAGTKLELK | 15.5 | 23.4 | 0.000326 | 14.4 | 0.76 | – | – | – | – | – |
| 39H5 Fab antibody (Fab, V domains shown, Purified Fab from the mouse Fab phage display library) VH: EIQLVQSGPELKKPGETVKISCKASGYTFTNYGMNWVKQAPGQGLKWMGWINTYTGEPTYADDFTGRFAFSLETSASTAYLQINNLKNEDMAAYFCAREEDYRYVFNYWGQGTTLTVSS VL: DIQMIQSTSSLSASLGNRVTISCRASQDISNYLNWYQQKPDGTVKLLIYDTSRLHAGVPSRFSGSGSGTDYSLTISNLEQEDIATYFCQQGVTLPLTFGAGTKLEIK | 8.7 | 10.2 | 9e-05 | 0.37 | 0.38 | – | – | – | – | – |
| humanized antibody Ab001 (antibody, human IgG1, V domains shown, also called h39H5 VHv1 + h39H5 VKv1) VH: QIQLVQSGSELKKPGASVKVSCKASGYTFTNYGMNWVRQAPGQGLEWMGWINTYTGEPTYADGFTGRFVFSLDTSASTAYLQISSLKAEDTAVYFCAREEDYRYVFNYWGQGTLVTVSS VL: DIQMTQSPSSLSASVGDRVTITCQASQDISNYLNWYQQKPGKAPKLLIYDTSRLHAGVPSRFSGSGSGTDYTFTISSLQPEDIATYFCQQGVTLPLTFGQGTKLEIK | – | – | – | – | – | 10.7 | 0.05 | 2 | 0.04 | 5.78 |
| humanized antibody Ab007 (antibody, human IgG1, V domains shown, also called Ab007 IgG1; h39H5 VHv3 + h39H5 VKv1) VH: QVQLVQSGSELKKPGASVKVSCKASGYTFTNYGMNWVRQAPGQGLEWMGWINTYTGEPTYADGFTGRFVFSLDTSASTAYLQISSLKAEDTAVYYCAREEDYRYVFNYWGQGTLVTVSS VL: DIQMTQSPSSLSASVGDRVTITCQASQDISNYLNWYQQKPGKAPKLLIYDTSRLHAGVPSRFSGSGSGTDYTFTISSLQPEDIATYFCQQGVTLPLTFGQGTKLEIK | – | – | – | – | – | 9.92 | 0.05 | 2.57 | 0.04 | 3.14 |
| 26G11 Fab antibody (Fab, V domains shown, Purified Fab from the mouse Fab phage display library) VH: QVQLQQSGPELVKPGASVKISCKTSGYTFADYTMHWVRQSQGKSLEWIGDIYPNDGGPNNNQKFKDKATLTVDKSSSTAYMELRSLTSEDSAVYYCARPFYYGNYAGFAFWGQGTLVTVSA VL: EMVLTQSPAIMSASPGEKVTMTCSASSSVSYMYWYQQKPGSSPRLLIYDTSNLASGVPVRFSGSGSGTSYSLTISRMEAEDAATYYCQQWSSYPLTFGAGTRLEIK | 40.7 | 49.7 | 0.000287 | 4.36 | 4.82 | – | – | – | – | – |
